Tests used:
[1] = system: AncSZ; assay: phosphorylation enrichment, bacterial display (enrichment ratio); higher = better substrate or ligand; peptides without Tyr show the background
[2] = biological target: EPHB1 (UniProt P54762); assay: as above
[3] = biological target: EPHB2 (UniProt P29323); assay: as above
[4] = biological target: FGFR1 (UniProt P11362); assay: as above
[5] = biological target: FGFR3 (UniProt P22607); assay: as above
[6] = system: Fer (mouse); assay: as above
[7] = biological target: Fes (UniProt P07332); assay: as above
[8] = biological target: Fyn (UniProt P06241); assay: as above
[9] = biological target: Hck (UniProt P08631); assay: as above
[10] = biological target: Jak2 (UniProt O60674); assay: as above
[11] = biological target: MERTK (UniProt Q12866); assay: as above
[12] = system: c-Abl (mouse); assay: as above
[13] = system: c-Src; assay: as above
[14] = biological target: Grb2 SH2 (UniProt P62993); assay: SH2 binding enrichment of the phosphorylated peptide, bacterial display (enrichment ratio); higher = better substrate or ligand; peptides without Tyr show the background
[15] = biological target: SHP2-C SH2; assay: as above
[16] = biological target: c-Src SH2; assay: as above
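For SH2 binding enrichment of the phosphorylated peptide, bacterial display in this document: peptide library displayed on the E. coli surface as eCPX fusions, selected cells deep-sequenced, score is each peptide's frequency after selection divided by its frequency in the input.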
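For phosphorylation enrichment, bacterial display in this document: 11-residue human phosphosite peptides and single-mutation variants displayed on the E. coli surface, counted by deep sequencing, each peptide's frequency after selection divided by its frequency in the unselected input library; frequency after pTyr selection over input frequency; kinase dosed for 20-30% of maximal phosphorylation in three min.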

Sequence of Fyn (P06241 whole entry, looked up): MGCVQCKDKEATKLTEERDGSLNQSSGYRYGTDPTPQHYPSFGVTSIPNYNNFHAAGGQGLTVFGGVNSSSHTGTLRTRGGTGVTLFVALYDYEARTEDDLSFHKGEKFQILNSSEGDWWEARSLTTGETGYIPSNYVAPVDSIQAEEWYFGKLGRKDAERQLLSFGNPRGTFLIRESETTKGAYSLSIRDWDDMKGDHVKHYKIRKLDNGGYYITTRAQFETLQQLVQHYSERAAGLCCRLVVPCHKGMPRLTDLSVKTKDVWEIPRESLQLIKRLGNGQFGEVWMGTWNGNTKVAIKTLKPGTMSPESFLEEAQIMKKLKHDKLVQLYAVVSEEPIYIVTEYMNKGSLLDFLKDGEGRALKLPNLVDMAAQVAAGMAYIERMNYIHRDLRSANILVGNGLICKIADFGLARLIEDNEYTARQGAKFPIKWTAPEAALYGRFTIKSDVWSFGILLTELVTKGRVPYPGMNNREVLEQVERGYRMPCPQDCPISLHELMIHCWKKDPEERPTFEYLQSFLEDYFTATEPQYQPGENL
Sequence of Fes (P07332 whole entry, looked up): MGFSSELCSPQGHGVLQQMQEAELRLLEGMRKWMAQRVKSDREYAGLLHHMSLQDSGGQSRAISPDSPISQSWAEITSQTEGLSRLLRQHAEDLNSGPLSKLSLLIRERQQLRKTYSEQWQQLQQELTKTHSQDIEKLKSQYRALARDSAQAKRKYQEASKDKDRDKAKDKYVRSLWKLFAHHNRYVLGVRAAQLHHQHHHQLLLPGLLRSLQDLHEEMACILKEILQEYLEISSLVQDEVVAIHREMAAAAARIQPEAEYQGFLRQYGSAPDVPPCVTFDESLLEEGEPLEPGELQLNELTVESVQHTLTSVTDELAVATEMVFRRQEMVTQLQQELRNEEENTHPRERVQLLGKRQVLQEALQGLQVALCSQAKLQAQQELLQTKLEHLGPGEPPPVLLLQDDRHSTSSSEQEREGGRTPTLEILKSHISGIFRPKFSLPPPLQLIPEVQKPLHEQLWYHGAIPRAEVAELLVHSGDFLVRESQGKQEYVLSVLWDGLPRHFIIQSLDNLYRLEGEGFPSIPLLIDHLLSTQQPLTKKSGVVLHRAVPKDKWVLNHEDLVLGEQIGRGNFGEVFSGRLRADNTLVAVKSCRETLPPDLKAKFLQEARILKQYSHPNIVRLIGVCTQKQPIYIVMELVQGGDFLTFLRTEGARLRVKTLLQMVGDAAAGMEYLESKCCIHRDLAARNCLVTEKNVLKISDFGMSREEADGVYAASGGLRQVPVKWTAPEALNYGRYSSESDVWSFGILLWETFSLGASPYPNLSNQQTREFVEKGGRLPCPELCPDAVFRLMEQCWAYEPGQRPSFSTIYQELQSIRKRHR
Sequence of Jak2 (O60674 whole entry, looked up): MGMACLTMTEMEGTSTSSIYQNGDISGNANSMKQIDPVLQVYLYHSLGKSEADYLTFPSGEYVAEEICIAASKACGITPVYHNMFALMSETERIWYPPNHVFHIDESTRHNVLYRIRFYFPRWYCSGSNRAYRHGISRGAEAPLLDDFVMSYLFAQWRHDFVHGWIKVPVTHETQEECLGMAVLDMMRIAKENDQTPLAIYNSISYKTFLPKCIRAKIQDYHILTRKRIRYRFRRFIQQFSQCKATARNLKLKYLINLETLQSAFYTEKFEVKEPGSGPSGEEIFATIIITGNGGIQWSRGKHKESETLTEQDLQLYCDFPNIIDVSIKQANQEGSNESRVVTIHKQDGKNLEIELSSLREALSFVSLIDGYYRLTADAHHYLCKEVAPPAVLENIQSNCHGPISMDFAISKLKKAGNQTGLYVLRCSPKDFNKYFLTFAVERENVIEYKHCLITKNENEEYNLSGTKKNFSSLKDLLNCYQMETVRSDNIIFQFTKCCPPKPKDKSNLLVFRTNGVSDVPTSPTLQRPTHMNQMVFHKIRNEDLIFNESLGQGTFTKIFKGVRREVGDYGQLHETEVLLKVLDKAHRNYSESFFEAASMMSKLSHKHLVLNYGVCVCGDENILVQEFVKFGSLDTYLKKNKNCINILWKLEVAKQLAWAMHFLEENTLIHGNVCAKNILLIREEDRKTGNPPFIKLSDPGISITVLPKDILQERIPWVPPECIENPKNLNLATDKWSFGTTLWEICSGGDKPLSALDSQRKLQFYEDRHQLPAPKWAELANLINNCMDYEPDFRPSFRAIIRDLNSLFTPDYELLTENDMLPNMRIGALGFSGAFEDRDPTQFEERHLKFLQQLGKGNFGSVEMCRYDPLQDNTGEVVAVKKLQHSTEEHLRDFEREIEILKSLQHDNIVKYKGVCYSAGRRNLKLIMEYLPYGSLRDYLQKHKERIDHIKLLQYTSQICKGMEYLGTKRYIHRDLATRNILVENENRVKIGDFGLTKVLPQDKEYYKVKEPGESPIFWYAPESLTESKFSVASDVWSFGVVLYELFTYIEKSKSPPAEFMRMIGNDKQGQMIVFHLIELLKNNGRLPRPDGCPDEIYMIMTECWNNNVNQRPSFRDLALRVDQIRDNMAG
Sequence of FGFR1 (P11362 whole entry, looked up): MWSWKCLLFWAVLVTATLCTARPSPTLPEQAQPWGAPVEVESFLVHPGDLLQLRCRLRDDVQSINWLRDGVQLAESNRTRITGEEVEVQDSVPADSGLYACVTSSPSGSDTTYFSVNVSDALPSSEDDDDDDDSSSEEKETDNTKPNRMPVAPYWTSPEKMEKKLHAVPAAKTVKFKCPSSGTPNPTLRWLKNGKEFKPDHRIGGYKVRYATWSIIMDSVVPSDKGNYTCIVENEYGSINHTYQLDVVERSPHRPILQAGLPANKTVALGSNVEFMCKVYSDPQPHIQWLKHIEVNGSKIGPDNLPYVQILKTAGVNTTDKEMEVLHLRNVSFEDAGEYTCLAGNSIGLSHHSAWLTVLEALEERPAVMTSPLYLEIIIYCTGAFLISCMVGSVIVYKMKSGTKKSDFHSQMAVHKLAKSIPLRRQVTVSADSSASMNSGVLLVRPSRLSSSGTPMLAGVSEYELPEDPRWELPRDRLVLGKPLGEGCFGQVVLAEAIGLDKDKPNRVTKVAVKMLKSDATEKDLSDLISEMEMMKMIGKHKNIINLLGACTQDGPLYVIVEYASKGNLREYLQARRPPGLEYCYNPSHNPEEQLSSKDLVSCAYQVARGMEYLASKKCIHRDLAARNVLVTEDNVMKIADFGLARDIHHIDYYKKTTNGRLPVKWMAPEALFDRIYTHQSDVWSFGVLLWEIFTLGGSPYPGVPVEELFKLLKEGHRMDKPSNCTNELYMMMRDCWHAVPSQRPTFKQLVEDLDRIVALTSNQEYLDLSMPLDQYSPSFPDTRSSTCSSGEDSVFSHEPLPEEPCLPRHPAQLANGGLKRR
Sequence of Grb2 SH2 (P62993 whole entry, looked up): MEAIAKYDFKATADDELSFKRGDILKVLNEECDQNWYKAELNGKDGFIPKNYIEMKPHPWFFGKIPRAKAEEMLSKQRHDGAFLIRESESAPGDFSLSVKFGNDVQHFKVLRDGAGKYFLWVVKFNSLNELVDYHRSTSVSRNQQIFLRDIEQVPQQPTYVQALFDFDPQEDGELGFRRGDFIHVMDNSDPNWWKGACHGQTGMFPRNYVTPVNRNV
Sequence of EPHB2 (P29323 whole entry, looked up): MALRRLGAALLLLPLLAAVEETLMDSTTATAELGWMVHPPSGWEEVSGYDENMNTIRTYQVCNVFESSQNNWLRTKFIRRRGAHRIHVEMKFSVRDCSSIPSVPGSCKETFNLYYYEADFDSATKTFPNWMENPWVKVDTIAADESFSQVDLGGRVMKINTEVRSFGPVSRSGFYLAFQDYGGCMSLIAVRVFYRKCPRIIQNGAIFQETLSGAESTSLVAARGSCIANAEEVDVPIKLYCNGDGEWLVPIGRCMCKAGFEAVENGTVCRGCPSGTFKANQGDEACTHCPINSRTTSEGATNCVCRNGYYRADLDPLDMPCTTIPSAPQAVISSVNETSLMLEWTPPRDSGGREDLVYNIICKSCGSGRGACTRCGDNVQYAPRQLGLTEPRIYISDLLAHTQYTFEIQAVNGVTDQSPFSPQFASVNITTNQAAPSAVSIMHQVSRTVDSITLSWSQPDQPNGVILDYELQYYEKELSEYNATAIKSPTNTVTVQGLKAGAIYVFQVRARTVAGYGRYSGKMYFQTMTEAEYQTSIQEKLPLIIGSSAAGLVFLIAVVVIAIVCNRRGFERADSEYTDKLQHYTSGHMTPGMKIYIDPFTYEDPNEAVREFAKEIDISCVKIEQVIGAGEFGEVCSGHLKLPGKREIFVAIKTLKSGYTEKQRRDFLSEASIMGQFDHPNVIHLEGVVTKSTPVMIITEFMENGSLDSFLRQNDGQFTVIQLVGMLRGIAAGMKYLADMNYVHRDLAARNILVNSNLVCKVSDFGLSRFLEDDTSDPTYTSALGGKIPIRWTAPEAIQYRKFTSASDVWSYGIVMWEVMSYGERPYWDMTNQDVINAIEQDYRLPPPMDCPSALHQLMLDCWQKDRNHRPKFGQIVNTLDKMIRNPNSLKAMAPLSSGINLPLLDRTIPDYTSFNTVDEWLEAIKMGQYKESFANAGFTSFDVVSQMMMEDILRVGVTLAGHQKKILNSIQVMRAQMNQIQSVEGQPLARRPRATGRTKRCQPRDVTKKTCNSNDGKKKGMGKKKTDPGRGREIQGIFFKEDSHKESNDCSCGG

Sequence	phosphorylation enrichment [1]	phosphorylation enrichment [2]	phosphorylation enrichment [3]	phosphorylation enrichment [4]	phosphorylation enrichment [5]	phosphorylation enrichment [6]	phosphorylation enrichment [7]	phosphorylation enrichment [8]	phosphorylation enrichment [9]	phosphorylation enrichment [10]	phosphorylation enrichment [11]	phosphorylation enrichment [12]	phosphorylation enrichment [13]	SH2 binding enrichment [14]	SH2 binding enrichment [15]	SH2 binding enrichment [16]
QGRQTYLLQPA [DDR2_Y813_P815L]	0.498	0.5	0.529	0.63	0.484	0.388	0.514	0.462	0.411	0.726	0.555	0.693	0.701	1.21	0.895	0.618
KERNQYGEVMV [MMP21_Y347]	0.587	0.455	0.436	0.502	0.463	0.653	0.734	1.39	0.507	0.547	0.404	0.683	0.744	0.93	0.825	0.391
ATPKGYEPDAS [OTC_Y223]	0.738	0.439	0.575	0.49	0.59	0.508	0.843	0.501	0.444	0.79	0.489	0.729	0.541	0.933	1.02	0.557
ESLRPYDVMDV [KCNQ2_Y562]	1.03	0.583	0.683	0.455	0.665	0.846	1.14	0.668	0.602	0.876	0.437	0.595	0.719	0.83	0.558	12.9
NTADFYDLFGG [PTPN11_Y63_G60A_YF]	0.993	0.628	0.591	0.515	0.608	1.6	1.12	4.53	3.02	1.2	2.3	0.8	4.45	0.847	0.785	0.55
GPGLVYRVANK [FLNB_Y1833_G1834R]	0.785	0.471	0.436	0.515	0.597	0.445	0.793	0.485	0.498	0.688	0.399	0.716	0.541	0.999	0.722	0.499
RRAKGYPIDLY [ITGB2_Y125]	1.07	0.684	0.87	0.718	0.889	0.73	1.29	0.787	1.18	1.34	1.17	0.868	1.28	0.707	0.627	0.466
DLVLQYLRVPL [F9_Y371_A366D]	1.09	0.489	0.525	0.528	0.757	0.435	1.13	0.518	0.469	3.15	0.404	0.617	0.46	1.47	1.23	0.776
DGTGRYLCNAC [GATA5_Y208_H207R]	0.552	0.4	0.4	0.475	0.522	0.362	0.573	0.424	0.375	0.455	0.383	0.523	0.349	0.976	0.644	0.487
FGAHNYHPLPV [OAT_Y55_YF]	1.64	0.573	0.677	6.41	3.33	0.35	0.535	0.468	0.606	0.58	1.04	0.562	0.538	0.817	0.493	0.893
CGQDPCIRELG [UROS_Y19_Y19C]	0.991	0.44	0.508	0.581	0.569	0.458	0.946	0.468	0.423	0.821	0.449	0.644	0.421	1.03	1.06	0.762
RAADFYSQQMA [GBP6_Y334_YF]	0.798	0.425	0.468	0.537	0.671	0.538	0.769	0.427	0.375	1.16	0.56	1.04	0.675	0.69	0.691	0.506
ETALHYIHDGI [GATD3A_Y250]	0.818	0.524	0.525	0.412	0.637	0.525	0.796	0.433	0.432	0.775	0.431	0.659	0.48	0.786	1.03	0.501
PQAVRYIFTID [DCX_Y103_G100A_YF]	1.15	1.29	0.59	1.01	0.841	0.524	1.76	0.639	0.673	0.806	0.595	0.863	0.385	1.53	3.09	1.54
SVVVPYEPPEF [TP53_Y220_V225F]	1.01	0.558	0.524	0.49	0.598	0.449	1.05	0.427	0.461	0.993	0.374	0.743	0.509	0.88	0.658	0.987
KELAKYYKLHH [AK7_Y390_N389K]	0.472	0.366	0.363	0.377	0.418	0.383	0.472	0.35	0.39	0.379	0.422	0.46	0.439	1.01	0.622	0.782
SVVVTYEPPEV [TP53_Y220_P219T]	1.57	1.06	1.61	0.493	0.708	0.752	1.32	0.516	0.697	0.969	0.779	0.961	0.623	0.722	0.761	0.729
QKFMAYLSQGW [HLCS_Y236_G241W]	1.19	0.812	1.05	0.668	1.14	0.86	1.32	0.639	0.501	1.75	0.83	0.903	0.439	0.917	1.5	0.689
AYRRGYFDEEM [PLEC_Y2971]	1.13	0.469	0.377	0.477	0.5	0.389	0.906	0.442	0.397	0.849	0.412	0.54	0.371	0.573	0.91	0.463
FTNRSYDLDFD [MYC_Y12_N11S_YF]	0.978	0.505	0.58	0.685	0.708	0.476	1.13	0.55	0.64	0.922	0.422	0.77	0.499	0.756	0.723	2.61
TVQVAYYTVMM [SPATA17_Y83_M86V]	1.52	2.96	1.61	5.72	4.63	1.59	1.5	1.59	1.74	2.57	5.44	0.972	2.09	1.06	0.812	0.925
SDQRRYSLIDP [CLIP2_Y972_R977P]	0.683	0.56	0.567	0.533	0.64	0.545	0.719	0.574	0.466	0.587	1.3	0.488	0.383	0.889	3.82	15.9
LRRFIYRPPDR [OTOF_Y1231]	0.825	0.529	0.656	0.808	0.656	0.583	1.18	0.678	0.854	0.809	0.824	0.485	0.954	0.538	0.504	0.725
PPSGEYFGHCG [TRIP6_Y275_Q278H]	1.69	0.85	1.02	0.698	1.18	0.668	1.38	0.698	0.983	0.999	0.529	0.904	0.509	1.06	0.713	0.599
TPIFPYLLPKS [PLD2_Y580_T577I_YF]	0.632	0.467	0.463	0.825	1.57	0.551	0.685	0.799	0.64	0.723	0.538	0.7	0.489	0.877	0.451	0.393
LLKKVYLMLDN [STAT1_Y203_M202V]	1.82	0.93	0.953	0.968	1.15	0.801	2.19	0.627	0.658	1.85	0.704	1.34	0.816	0.96	0.793	0.566
QAPPIYLDVLG [NTRK1_Y791_V790I]	1.31	13.6	3.26	3.35	2.38	3.26	0.952	1.46	2.11	1.21	3.35	0.878	1.71	0.791	0.734	0.413
KRELRYMHSRV [ABCD1_Y281_G277R]	0.472	0.282	0.534	0.295	0.447	0.272	0.578	0.312	0.381	0.525	0.305	0.486	0.313	1.43	1.65	1.49
AGTIPYHAHLD [ASS1_Y291_L290P]	0.507	0.395	0.369	0.458	0.435	0.357	0.645	0.415	0.484	0.447	0.456	0.474	0.377	0.838	0.772	0.554

From the supplement of paper PMC10065799, “High-throughput profiling of sequence recognition by tyrosine kinases and SH2 domains using bacterial peptide display” (eLife, 2023)
